# Molecular target: interleukin-6 (IL-6), human recombinant (Homo sapiens, UniProt P05231 30-212)
# Test: SWCNT near-infrared fluorescence quenching, (7,5) chirality; SWCNT complex, 5250 ng/mL IL-6, 1X PBS, 3 h; no response, p=0.65903; 0.5 mg/L SWCNT-ssDNA in 1X PBS (or 1X PBS + 10% FBS), 5250 ng/mL IL-6, 120 uL, triplicate, up to 180 min; pH and temperature not stated
# Conditions: protein: commercial; label: noncovalently adsorbed on SWCNT
# interleukin-6 (IL-6), human recombinant, sequence (P05231 30-212): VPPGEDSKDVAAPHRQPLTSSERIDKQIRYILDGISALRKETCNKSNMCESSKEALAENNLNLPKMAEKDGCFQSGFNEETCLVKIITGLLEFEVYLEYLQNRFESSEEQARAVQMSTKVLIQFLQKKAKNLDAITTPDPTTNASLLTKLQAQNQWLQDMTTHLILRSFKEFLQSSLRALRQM
binder,measurement,value
GTGTGTGTGTGTGTGTGTGTGTGTGTGTGT (ssDNA) [(GT)15],binding result,no binding

# Source: publication doi:10.1101/2024.04.05.588290, “An optical aptamer-based cytokine nanosensor detects macrophage activation by bacterial toxins”
